This is an account of results in paper PMC3697942.

In the data set the target is T1, HB5 (HOMEOBOX PROTEIN 5, class I HD-ZIP) (Arabidopsis thaliana, UniProt P46667 1-312).
T1 sequence: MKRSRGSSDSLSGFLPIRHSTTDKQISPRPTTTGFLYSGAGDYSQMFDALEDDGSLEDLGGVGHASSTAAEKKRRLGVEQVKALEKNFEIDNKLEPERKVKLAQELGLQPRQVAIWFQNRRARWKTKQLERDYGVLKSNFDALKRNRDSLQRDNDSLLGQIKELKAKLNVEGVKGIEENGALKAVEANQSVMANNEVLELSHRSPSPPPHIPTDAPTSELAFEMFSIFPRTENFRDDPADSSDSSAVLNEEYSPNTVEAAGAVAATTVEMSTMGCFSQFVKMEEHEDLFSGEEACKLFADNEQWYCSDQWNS
Kind of data set: EMSA. Background: A gel shift assay detects complexes by their altered migration in electrophoresis.

B1: PF 36bp (dsDNA)
DNA 1: GGCCCGCCATTACAAGACATATGGGTCCCAATTCTCATCACGGGCC
DNA 2: GGCCCGTGATGAGAATTGGGACCCATATGTCTTGTAATGGCGGGCC
For the molecule B1, the binding result is “binds”.
